According to PMC5866752 (Nature chemical biology, 2018):
Where a SMILES comes first, the peptide text is derived from it. Where no end group is shown, it is not given here.

Key:
p6–UEV interaction = target: T1, p6–UEV interaction (Homo sapiens, UniProt Q99816); assay: sandwich ELISA monitoring disruption of the p6–UEV PPI; assay type: binding, HIV p6 / human UEV (TSG101)
T1 sequence (Q99816 2-145 limits assumed): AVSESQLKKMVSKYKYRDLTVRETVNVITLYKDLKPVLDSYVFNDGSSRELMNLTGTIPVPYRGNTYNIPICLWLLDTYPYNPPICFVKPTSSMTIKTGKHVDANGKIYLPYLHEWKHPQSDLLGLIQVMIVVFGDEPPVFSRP

[1] = test system: GAG-mediated budding of virus-like particles from HEK293T cells; assay: virus-like particle budding assay; assay type: cell-based, human; settings: 25 μM
[2] = target: T2, His6-UEV (ubiquitin E2 variant domain of the human TSG101 protein) (human, UniProt Q99816 2-145); assay: ELISA
T2 sequence: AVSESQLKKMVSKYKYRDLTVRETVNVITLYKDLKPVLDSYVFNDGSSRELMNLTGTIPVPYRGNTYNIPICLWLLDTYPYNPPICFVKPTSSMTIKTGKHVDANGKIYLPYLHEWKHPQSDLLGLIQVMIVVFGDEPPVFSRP

[3] = target: T2, His6-UEV (ubiquitin E2 variant domain …); assay: fluorescence polarisation

## CC[C@H](C)[C@@H]1NC(=O)[C@H](Cc2c[nH]c3ccccc23)NC(=O)CNC(=O)[C@H](CO)NC(=O)[C@H](C(C)C)NC(=O)[C@H](CC(N)=O)NC(=O)[C@H](Cc2c[nH]c3ccccc23)NC(=O)[C@H](Cc2ccc(O)cc2)NC1=O [CP11] (cyclo(GWIYWNVS))
p6–UEV interaction
  IC50: 30.2 ± 2.2 µM

## CGRKKRRQRRRPPQ [Tat]
[1]
  effect on viral budding: no effect

B1: GST-p6 (GST-tagged HIV p6 protein) (natural protein)
chain: LQSRPEPTAPPEESFRSGVETTTPPQKQEPIDKELYPLTSLRSLFGNDPSSQ
[2]
  EC50: 0.948 µM

## GVAGGAACLHFFLSMPPSHVLDIC (FITC on the N-terminus; two non-overlapping lanthionine (thioether) rings) [N-terminal FITC-labeled peptide 3]
[3]
  Kd: 5.5 µM

## GGPEPTAPPEE (also: FITC label, position not given here) [FITC labelled PTAP peptide (GGPEPTAPPEE)]
[3]
  Kd: 16.6 µM
